Laboratory results taken from paper PMC10907630, “Phosphorylation regulates tau’s phase separation behavior and interactions with chromatin”.

How the values were obtained:
tau 1N4R [1] = target: T1, tau 1N4R (UniProt P10636-7 1-412); experiment: EMSA; 10 mM NaCl; Hill fit; EMSA: 20 nM DNA or nucleosome, 20 mM HEPES pH 7.2, 10 mM NaCl (or 150), 0.5 mM TCEP, 0.1% Tween-20, 5% sucrose, room temperature 20 min; FA: 10 nM DNA, same buffer with 10 mM NaCl, 0.01% NP-40 substitute, room temperature 10 min; conditions: protein: recombinant; tags: none stated; label: 5' 6-FAM on strand 1; blunt
T1 sequence (P10636 other isoform, or with tags, fused parts or gaps): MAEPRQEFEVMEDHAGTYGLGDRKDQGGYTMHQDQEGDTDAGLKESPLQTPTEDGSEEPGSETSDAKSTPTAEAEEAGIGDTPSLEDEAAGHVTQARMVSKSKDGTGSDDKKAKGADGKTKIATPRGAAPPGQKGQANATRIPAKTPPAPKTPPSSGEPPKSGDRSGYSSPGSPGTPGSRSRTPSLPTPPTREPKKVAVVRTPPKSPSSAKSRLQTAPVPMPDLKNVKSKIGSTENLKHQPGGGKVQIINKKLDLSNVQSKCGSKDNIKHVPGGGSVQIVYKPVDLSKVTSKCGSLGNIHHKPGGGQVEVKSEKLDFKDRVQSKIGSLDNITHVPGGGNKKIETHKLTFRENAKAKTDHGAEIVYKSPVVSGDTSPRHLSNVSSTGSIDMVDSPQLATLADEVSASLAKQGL

tau 1N4R [2] = target: T1, tau 1N4R; experiment: fluorescence anisotropy; 10 mM NaCl; Hill fit; EMSA: 20 nM DNA or nucleosome, 20 mM HEPES pH 7.2, 10 mM NaCl (or 150), 0.5 mM TCEP, 0.1% Tween-20, 5% sucrose, room temperature 20 min; FA: 10 nM DNA, same buffer with 10 mM NaCl, 0.01% NP-40 substitute, room temperature 10 min; conditions: protein: recombinant; tags: none stated; label: 5' 6-FAM on strand 1; blunt

B1: 22 bp DNA (dsDNA)
DNA 1: ATTTAGAAATGTCCACTGTAGG
DNA 2: CCTACAGTGGACATTTCTAAAT
Tau 1N4R [1]
  Kd: 112 ± 3.7 nM
Tau 1N4R [2]
  Kd: 6.3 ± 0.5 nM
